Assay results: article PMC3104517 (Nature Communications, 2011)

Molecular target: the molecule itself
Assay: 2D crystallisation on lipid monolayers, negative-stain TEM

B1: AnxA5 triple mutant R16E/K27E/K56E (natural protein, rat)
chain: ALRGTVTDFSGFDGEADAEVLRKAMEGLGTDEDSILNLLTARSNAQRQQIAEEFETLFGRDLVNDMKSELTGKFEKLIVALMKPSRLYDAYELKHALKGAGTDEKVLTEIIASRTPEELRAIKQAYEEEYGSNLEDDVVGDTSGYYQRMLVVLLQANRDPDTAIDDAQVELDAQALFQAGELKWGTDEEKFITILGTRSVSHLRRVFDKYMTISGFQIEETIDRETSGNLENLLLAVVKSIRSIPAYLAETLYYAMKGAGTDDHTLIRVIVSRSEIDLFNIRKEFRKNFATSLYSMIKGDTSGDYKKALLLLCGGEDD
B1: binds.

B2: AnxA5 single mutant K191E (natural protein, rat)
chain: ALRGTVTDFSGFDGRADAEVLRKAMKGLGTDEDSILNLLTARSNAQRQQIAEEFKTLFGRDLVNDMKSELTGKFEKLIVALMKPSRLYDAYELKHALKGAGTDEKVLTEIIASRTPEELRAIKQAYEEEYGSNLEDDVVGDTSGYYQRMLVVLLQANRDPDTAIDDAQVELDAQALFQAGELKWGTDEEEFITILGTRSVSHLRRVFDKYMTISGFQIEETIDRETSGNLENLLLAVVKSIRSIPAYLAETLYYAMKGAGTDDHTLIRVIVSRSEIDLFNIRKEFRKNFATSLYSMIKGDTSGDYKKALLLLCGGEDD
B2: binds.

B3: AnxA5 single mutant R23E (natural protein, rat)
chain: ALRGTVTDFSGFDGRADAEVLEKAMKGLGTDEDSILNLLTARSNAQRQQIAEEFKTLFGRDLVNDMKSELTGKFEKLIVALMKPSRLYDAYELKHALKGAGTDEKVLTEIIASRTPEELRAIKQAYEEEYGSNLEDDVVGDTSGYYQRMLVVLLQANRDPDTAIDDAQVELDAQALFQAGELKWGTDEEKFITILGTRSVSHLRRVFDKYMTISGFQIEETIDRETSGNLENLLLAVVKSIRSIPAYLAETLYYAMKGAGTDDHTLIRVIVSRSEIDLFNIRKEFRKNFATSLYSMIKGDTSGDYKKALLLLCGGEDD
B3: binds.

B4: AnxA5 single mutant R16E (natural protein, rat)
chain: ALRGTVTDFSGFDGEADAEVLRKAMKGLGTDEDSILNLLTARSNAQRQQIAEEFKTLFGRDLVNDMKSELTGKFEKLIVALMKPSRLYDAYELKHALKGAGTDEKVLTEIIASRTPEELRAIKQAYEEEYGSNLEDDVVGDTSGYYQRMLVVLLQANRDPDTAIDDAQVELDAQALFQAGELKWGTDEEKFITILGTRSVSHLRRVFDKYMTISGFQIEETIDRETSGNLENLLLAVVKSIRSIPAYLAETLYYAMKGAGTDDHTLIRVIVSRSEIDLFNIRKEFRKNFATSLYSMIKGDTSGDYKKALLLLCGGEDD
B4: binds.

B5: AnxA5 single mutant K56E (natural protein, rat)
chain: ALRGTVTDFSGFDGRADAEVLRKAMKGLGTDEDSILNLLTARSNAQRQQIAEEFETLFGRDLVNDMKSELTGKFEKLIVALMKPSRLYDAYELKHALKGAGTDEKVLTEIIASRTPEELRAIKQAYEEEYGSNLEDDVVGDTSGYYQRMLVVLLQANRDPDTAIDDAQVELDAQALFQAGELKWGTDEEKFITILGTRSVSHLRRVFDKYMTISGFQIEETIDRETSGNLENLLLAVVKSIRSIPAYLAETLYYAMKGAGTDDHTLIRVIVSRSEIDLFNIRKEFRKNFATSLYSMIKGDTSGDYKKALLLLCGGEDD
B5: binds.

B6: AnxA5 triple mutant R23E/K27E/K191E (natural protein, rat)
chain: ALRGTVTDFSGFDGRADAEVLEKAMEGLGTDEDSILNLLTARSNAQRQQIAEEFKTLFGRDLVNDMKSELTGKFEKLIVALMKPSRLYDAYELKHALKGAGTDEKVLTEIIASRTPEELRAIKQAYEEEYGSNLEDDVVGDTSGYYQRMLVVLLQANRDPDTAIDDAQVELDAQALFQAGELKWGTDEEEFITILGTRSVSHLRRVFDKYMTISGFQIEETIDRETSGNLENLLLAVVKSIRSIPAYLAETLYYAMKGAGTDDHTLIRVIVSRSEIDLFNIRKEFRKNFATSLYSMIKGDTSGDYKKALLLLCGGEDD
B6: binds.

B7: AnxA5 single mutant K27E (natural protein, rat)
chain: ALRGTVTDFSGFDGRADAEVLRKAMEGLGTDEDSILNLLTARSNAQRQQIAEEFKTLFGRDLVNDMKSELTGKFEKLIVALMKPSRLYDAYELKHALKGAGTDEKVLTEIIASRTPEELRAIKQAYEEEYGSNLEDDVVGDTSGYYQRMLVVLLQANRDPDTAIDDAQVELDAQALFQAGELKWGTDEEKFITILGTRSVSHLRRVFDKYMTISGFQIEETIDRETSGNLENLLLAVVKSIRSIPAYLAETLYYAMKGAGTDDHTLIRVIVSRSEIDLFNIRKEFRKNFATSLYSMIKGDTSGDYKKALLLLCGGEDD
B7: binds.

B8: AnxA5 triple mutant R16E/K27E/K191E (natural protein, rat)
chain: ALRGTVTDFSGFDGEADAEVLRKAMEGLGTDEDSILNLLTARSNAQRQQIAEEFKTLFGRDLVNDMKSELTGKFEKLIVALMKPSRLYDAYELKHALKGAGTDEKVLTEIIASRTPEELRAIKQAYEEEYGSNLEDDVVGDTSGYYQRMLVVLLQANRDPDTAIDDAQVELDAQALFQAGELKWGTDEEEFITILGTRSVSHLRRVFDKYMTISGFQIEETIDRETSGNLENLLLAVVKSIRSIPAYLAETLYYAMKGAGTDDHTLIRVIVSRSEIDLFNIRKEFRKNFATSLYSMIKGDTSGDYKKALLLLCGGEDD
B8: binds.

B9: AnxA5 double mutant K27E/K191E (natural protein, rat)
chain: ALRGTVTDFSGFDGRADAEVLRKAMEGLGTDEDSILNLLTARSNAQRQQIAEEFKTLFGRDLVNDMKSELTGKFEKLIVALMKPSRLYDAYELKHALKGAGTDEKVLTEIIASRTPEELRAIKQAYEEEYGSNLEDDVVGDTSGYYQRMLVVLLQANRDPDTAIDDAQVELDAQALFQAGELKWGTDEEEFITILGTRSVSHLRRVFDKYMTISGFQIEETIDRETSGNLENLLLAVVKSIRSIPAYLAETLYYAMKGAGTDDHTLIRVIVSRSEIDLFNIRKEFRKNFATSLYSMIKGDTSGDYKKALLLLCGGEDD
B9: binds.
